Columns and labels:
[1] = tested on: heart failure in rat caused by ligation of coronary artery; assay: Capillary counting in myocardial fibrotic area (HE, image analysis); assay type: in vivo, SD rat
From the text: (§1) After fixed with 10% formaldehyde, myocardium of the rat was longitudinally cut with equal distance into 3 slices, conventionally embedded with paraffin, section made, HE stained, image analysis for area of fibrotic region of the heart, counted the number of capillary in the fibrotic lesion (counting unit: piece/mm^2); Nagar-Oslen stained, studied the size of ischemic hypoxic region in the myocardium.

[2] = tested on: heart failure in rat caused by ligation of coronary artery; assay: Nagar-Oslen staining of ischemic hypoxic myocardium; assay type: in vivo, SD rat
From the text: as §1
In Nagar-Oslen stained section, normal myocardium stained with light yellow color, while ischemic hypoxic area stained deeper with reddish color. Ischemic hypoxic changes could be analyzed with this method and comparison of qualitative and semi-quantitative test could be made.

[3] = tested on: acute myocardial injury caused by viral (Coxsackie B3) infection in mice; assay: Myocardial pathologic score, mice infected with Coxsackie B3 virus; assay type: in vivo, BALB/C mice; parameters: key: 0-4 score: 0 = 0%, 1 = 25%, 2 = 50%, 3 = 75%, 4 = 100% lesion area
Protocol: The survived mice were killed through dislocating the cervical spine, aseptic thoracotomy was performed and the heart extirpated, heart weight measured and put the myocardium into formaldehyde for fixation, embedded in paraffin, consecutive section made and pathologic examination performed, observed inflammatory cells infiltration of the myocardium, degeneration and necrosis. Based on the Principle of New Drug Evaluation Guideline, pathologic scoring criteria was defined as follow: • Score 0: lesion area accounting for 0%; • Score 1: lesion area accounting for 25%; • Score 2: lesion area accounting for 50%; • Score 3: lesion area accounting for 75%; • Score 4: lesion area accounting for 100%; • Scoring could be performed between score 1 and score 2 or between score 2 and score 3, e.g. when lesion area was 80% was scored as score 3.2, 7.3.3.4 Observation On Survival Of Mice

[4] = Acute toxicity experiment, intravenous injection; assay type: in vivo
[5] = tested on: phosphorylation of ErbB2 protein, MCF-7 cells; assay: In vitro determination of NRG-1 activity (ELISA test for kinase receptor activation); assay type: cell-based, human
From the text: Quantity of standard product that can induce 50% maximal reaction is defined as an activity unit (1U). Accordingly, product from different pharmaceuticals and of different batch number can be quantitated with uniform criteria.
HER2/neu gene encodes a trans-membrane protein p185, which is a tyrosine protein kinase. Binding of Neuregulin-1 with ErbB3 or ErbB4 induces heterodimer ErbB3-ErbB2 and ErbB4-ErbB2 formation and activates HER2 encoded tyrosine protein kinase, mediating the transmission of functioning signal of Neuregulin-1. Based on the fact that binding of Neuregulin-1 with its receptors triggers phosphorylation of ErbB2 protein, we establish a rapid, sensitive and high flux method for in vitro quantitatively determining biological activity of Recombinant Neuregulin-1.
150 mM NaCl+50 mM Hepes+1% Triton-X 100+2 mM (sodium orthovanadate)+0.01% (thimerosol). […]
Wash the plate 5 times, dilute HRP enzyme linked mouse anti-phosphorylated tyrosine protein antibody with 1:500 lotion (determined by the product using guide and the using time), add 100 μl into each hole of the plate. […]
Colorimetric analysis on the ELISA reader, determine wave length of 450 nm, reference wave length of 655, record the results. […]

[6] = tested on: heart failure in rat caused by ligation of coronary artery; assay: Echocardiography heart function, heart failure by ligation of coronary artery; assay type: in vivo, SD rat

B1: rhNRG-1 β: Recombinant human neuregulin fragment of 61 amino acid (SEQ ID NO:4), 3 disulfide bonds, expressed in E. coli (protein, listed as Homo sapiens)
chain: SHLVKCAEKEKTFCVNGGECFMVKDLSNPSRYLCKCPNEFTGDRCQNYVMASFYKAEELYQ
modifications: disulfide (positions not given here)
[1]; 5 μg/kg iv qd x 10
  Capillary counting (I): 9.35 ± 4.2 piece/mm^2
  Capillary counting (II): 15.0 ± 6.9 piece/mm^2
[1]; 10 μg/kg iv qd x 10
  Capillary counting (I): 8.99 ± 3.3 piece/mm^2
  Capillary counting (II): 19.6 ± 8.5 piece/mm^2
[1]; 20 μg/kg iv qd x 10
  Capillary counting (I): 10.12 ± 3.0 piece/mm^2
  Capillary counting (II): 24.6 ± 9.5 piece/mm^2
[2]; 5 μg/kg
  red stained (ischemic hypoxic) tissue, Nagar-Oslen stain: patchy distribution
[2]; 10 μg/kg
  red stained (ischemic hypoxic) tissue, Nagar-Oslen stain: patchy distribution
[2]; 20 μg/kg
  red stained (ischemic hypoxic) myocardial cells, Nagar-Oslen stain: punctuate distribution
[3]; 7.5 μg/kg iv qd × 5, (I)
  Pathologic score Mean ± SD: 1.52 ± 0.74
[3]; 7.5 μg/kg iv qd × 5, (II)
  Pathologic score Mean ± SD: 1.34 ± 1.16
[3]; 15 μg/kg iv qd × 5, (I)
  Pathologic score Mean ± SD: 0.73±0.58
[3]; 15 μg/kg iv qd × 5, (I), listed as rhNRG-1β
  Pathologic score Mean ± SD: 0.73 ± 0.58
[3]; 15 μg/kg iv qd × 5, (II)
  Pathologic score Mean ± SD: 0.57 ± 0.58
[3]; 30 μg/kg iv qd × 3, (I)
  Pathologic score Mean ± SD: 0.33±0.155
[3]; 30 μg/kg iv qd × 3, (I), listed as rhNRG-1β
  Pathologic score Mean ± SD: 0.33 ± 0.155
[3]; 30 μg/kg iv qd × 3, (II)
  Pathologic score Mean ± SD: 0.55 ± 0.476
[3]; 30 μg/kg iv qd × 5, (I)
  Pathologic score Mean ± SD: 0.56±0.47
[3]; 30 μg/kg iv qd × 5, (I), listed as rhNRG-1β
  Pathologic score Mean ± SD: 0.56 ± 0.47
[3]; 30 μg/kg iv qd × 5, (II)
  Pathologic score Mean ± SD: 0.23 ± 0.26
[3]; 30 μg/kg iv qd × 5, Example 5 (I)
  Pathologic score Mean ± SD: 0.11±0.14
[3]; 30 μg/kg iv qd × 5, Example 5 (I), listed as rhNRG-1β
  Pathologic score Mean ± SD: 0.11 ± 0.140
[3]; 30 μg/kg iv qd × 5, Example 5 (II)
  Pathologic score Mean ± SD: 0.17 ± 0.157
[3]; 30 μg/kg iv qd × 7, (I)
  Pathologic score Mean ± SD: 0.13±0.13
[3]; 30 μg/kg iv qd × 7, (I), listed as rhNRG-1β
  Pathologic score Mean ± SD: 0.13 ± 0.132
[3]; 30 μg/kg iv qd × 7, (II)
  Pathologic score Mean ± SD: 0.19 ± 0.168
[4]
  MTD of acute toxicity experiment: 35 mg/kg
[5]; batch number 200210024
  specific activity: 1.12×10^4 U/mg
[5]; purified recombinant neuregulin from engineered strain
  specific activity: more than 5×10^3 EU/mg
[6]; 5 μg/kg, after ligation prior to drug administration, long-term monitoring
  EF value: 53.1 ± 12.8%
[6]; 20 μg/kg
  time the changes of ejection fraction maintain after the drug administration: about 35 days
[6]; 20 μg/kg, 5-day after drug administration and 35-day after drug withdrawal
  EF value: 73.0 ± 20.3 %

Source: patent US9555076B2, “Neuregulin based methods and compositions for treating cardiovascular diseases” (Zensun (Shanghai) Science & Technology, Co., Ltd., priority 2002, dated 2017)
